{"source": "paper PMC12866179", "about": "“Oxidized MIF is an Alzheimer’s disease drug target relaying external risk factors to tau pathology” (Cell Reports Medicine, 2025)", "target": "recombinant human MIF-C80W (human)", "assay": "SEC-MALS; 100 uM MIF (WT or C80W) in 20 mM phosphate buffer, with or without 100 uM PAV-174; TSKgel G2000SWXL, 0.5 mL/min, 25 C; UV 280 nm and miniDawn Treos light scattering"}
{"substance": "recombinant human MIF-C80W (natural protein)", "values": [{"measurement": "stoichiometry N", "result": 3}]}
